# Assay results published in the supplement of paper PMC9170038.
# System: MS2 coat protein
# Experiment: apparent KD of MS2 coat protein; designed switch direction (-1 OFF switch, 1 ON switch): -1; higher = weaker reporter binding
# How it was run: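 Designed RNA switches with common flanks were made on Illumina chips by stalled E. coli RNA polymerase. Titration with SNAP-549-labelled MS2 coat protein doubled from 0.7 or 1.5 nM up to 3 µM. Apparent KD is each design's median over clusters after curve-fitting normalised fluorescence.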
# [1] = Eterna round: R95, input ligand: FMN 200 uM
# [2] = Eterna round: R95, input ligand: microRNA oligo, concentration not stated
# [3] = Eterna round: R95, input ligand: none
# [4] = input ligand: microRNA oligo, concentration not stated
Sequence,apparent KD of MS2 coat protein [1] [nM],apparent KD of MS2 coat protein [2] [nM],apparent KD of MS2 coat protein [3] [nM],apparent KD of MS2 coat protein (input ligand: FMN 200 uM) [nM],apparent KD of MS2 coat protein (input ligand: none) [nM],apparent KD of MS2 coat protein [4] [nM]
"GAAUAUAAGCAAAGAUCCUACAUGAGGAUCACCCAUGUGCUCGUCUUAUAAAGUACUAUCACGAAAGUGAUAGUACA [Mat - Sensor v3 - turn-off var 1 - Eli Mod - D82] (puzzle: Sensor v3, turn-off variant 1)",89.9,25.1,135,,,
"AUAAUGUCAGGAUAUCGAACUUACUACUUCGGUAGUAAGUUCGAGAAGGGACAUGAGGAUCACCCAUGUGAUCA [E4/1-A4] (Eterna round: R97, puzzle: Exclusion 4)",,,,41.8,109,
"UUUGUACAUGAGGAUCACCCAUGUCAGGAUAUGUCAUCGCCGUCUGCCAGACGGCGUCACAGAAGGGACAUGCA [EX1 C.16] (Eterna round: R97, puzzle: Exclusion 1)",,,,104,34.1,
"CACCAGAGAGGAUAUGCACUCAUGGCACCGAAAGGGAGGCGACAUGAGGAUCACCCAUGUAGAAGGCUCAGCAG [Eternabot (Original) Solution 16] (Eterna round: R97, puzzle: Exclusion 2)",,,,153,70.6,
"AGAAGUAGAAACCGAUCCUACAUGAGGAUCACCCAUGUAGCAAGACGUGCACGCGAAGCUCGUCAGACUACCAGAAG [salish99_TOv1_r3_001] (puzzle: Sensor v3, turn-off variant 1)",379,821,685,,,
"UUUAUGUCAGGAUAUACAUGAGGAUCACCCAUGUAUACCUUAAGGUAUACAUGGGAAUGUAGAAGGGACCUCCU [Omei Ex3 Pseudoloop 8] (Eterna round: R97, puzzle: Exclusion 3)",,,,26.6,46.7,
"UUUUAACAAGCGAGGUCCUACAUGAGGAUCACCCAUGUAUGUCAUGGAUUCCAUGGUCUUUUUGCUCGUCUUGUGUG [jl TITIN mod 8] (Eterna round: R97, puzzle: Sensor, turn-off variant 1)",,,,103,105,
"AAUUAGCUAGGAUAUACAUGAGGAUCACCCAUGUCAGUUACAUGGCCGGGUGUAACGAGUAGAAGGAGCGCCAA [EX3 B.28] (Eterna round: R97, puzzle: Exclusion 3)",,,,175,513,
"CCAAGCUUUUUCCUUAACAACAUGAGGAUCACCCAUGUGUAAGCUAUUCGGUUUGGGCUCUUUAGUGCUCGUCUUAU [malcom mod] (Eterna round: R97, puzzle: Sensor, turn-off variant 1)",,,,19.2,19.7,
"GCACGGAUGGUAGGAUAUCUGUGCGAUUAGCUCAGAGAAGGACCACAUGAGGAUCACCCAUGUACCUCAAUUAGCCUUCCGUGC [Eli exng1 - 019] (Eterna round: R96, puzzle: Exclusion NG 1)",,,,14.8,15.2,11.3
"CUAUGGCAAGGAUAUACGUAUCAUGUGACGAUAGCUCAAGAACAUGAGGAUCACCCAUGUAGAAGGUGCGGAGA [Eternabot (L1) Solution 90] (Eterna round: R97, puzzle: Exclusion 2)",,,,54.2,54.6,
"UGUAGGUCUACCUUGGUGGAUCUGCAUUUUUGCAGGUGUACAUGAGGAUCACCCAUGUCCUCAUUUGCUCGUCUUAU [JL turnoff v2 99.31] (puzzle: Sensor v3, turn-off variant 2)",467,560,542,,,
"CAUAAUUUUCGGAAUAUGUACAUGAGGAUCACCCAUGUGACGAGUUACAUGAUUAACAAGCUUUUUGCUCGUCUUAU [Sensor v3 - Turn-off variant 1 - 12] (puzzle: Sensor v3, turn-off variant 1)",118,31.9,207,,,
"AGGGAGUAAGGAUAUCGGAAAGGACACGAAAGUGACAAAGACGAGAAGGUACAUGAGGAUCACCCAUGUAAAAA [milkweed 24] (Eterna round: R96, puzzle: Exclusion 4)",,,,,,18.2
